Measurements: paper PMC9496920, “Anti-PTK7 Monoclonal Antibodies Inhibit Angiogenesis by Suppressing PTK7 Function” (Cancers, 2022)

Molecular target: KDR-HA (human KDR with a C-terminal HA tag) (human, UniProt P35968 20-1356)
Assay: cell-based or functional assay

KDR-HA (human KDR with a C-terminal HA tag), sequence (P35968 20-1356): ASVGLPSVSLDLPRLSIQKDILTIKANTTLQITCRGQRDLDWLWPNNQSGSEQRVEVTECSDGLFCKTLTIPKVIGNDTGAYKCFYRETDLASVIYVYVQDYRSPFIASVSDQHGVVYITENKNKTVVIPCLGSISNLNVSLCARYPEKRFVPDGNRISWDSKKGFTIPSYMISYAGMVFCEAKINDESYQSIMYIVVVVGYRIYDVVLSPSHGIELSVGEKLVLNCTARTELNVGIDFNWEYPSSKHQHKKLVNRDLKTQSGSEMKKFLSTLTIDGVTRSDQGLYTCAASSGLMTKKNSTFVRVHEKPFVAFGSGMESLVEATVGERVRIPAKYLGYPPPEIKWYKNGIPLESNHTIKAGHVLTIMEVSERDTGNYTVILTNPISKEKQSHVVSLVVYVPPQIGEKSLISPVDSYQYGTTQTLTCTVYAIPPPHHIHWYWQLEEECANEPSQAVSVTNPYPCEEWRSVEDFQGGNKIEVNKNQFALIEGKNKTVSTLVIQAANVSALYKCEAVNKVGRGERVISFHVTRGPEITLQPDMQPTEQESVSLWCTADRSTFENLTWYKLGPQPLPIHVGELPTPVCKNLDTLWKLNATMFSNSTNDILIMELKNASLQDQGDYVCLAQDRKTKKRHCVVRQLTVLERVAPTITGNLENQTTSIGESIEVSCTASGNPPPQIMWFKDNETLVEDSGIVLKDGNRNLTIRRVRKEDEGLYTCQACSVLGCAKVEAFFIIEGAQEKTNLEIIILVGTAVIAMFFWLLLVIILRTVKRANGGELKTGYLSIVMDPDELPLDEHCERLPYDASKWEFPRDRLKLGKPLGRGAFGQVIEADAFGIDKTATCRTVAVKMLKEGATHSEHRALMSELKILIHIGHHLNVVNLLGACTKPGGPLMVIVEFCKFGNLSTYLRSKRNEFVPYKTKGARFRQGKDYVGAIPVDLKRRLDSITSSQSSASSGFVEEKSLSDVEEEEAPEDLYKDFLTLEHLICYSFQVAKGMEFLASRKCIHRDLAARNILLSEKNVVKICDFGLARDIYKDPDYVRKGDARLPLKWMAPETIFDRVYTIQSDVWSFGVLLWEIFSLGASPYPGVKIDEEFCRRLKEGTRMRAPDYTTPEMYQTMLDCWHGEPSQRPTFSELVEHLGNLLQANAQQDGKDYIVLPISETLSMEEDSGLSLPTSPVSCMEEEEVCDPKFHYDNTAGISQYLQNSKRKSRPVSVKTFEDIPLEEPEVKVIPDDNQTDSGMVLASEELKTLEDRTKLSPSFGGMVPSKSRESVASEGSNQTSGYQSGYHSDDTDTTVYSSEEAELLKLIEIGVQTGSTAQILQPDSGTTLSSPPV

VEGF-induced phosphorylation of KDR (Tyr1175) in HUVECs pre-treated with mAb-32 (10 ug/mL), Western blot, relative to VEGF alone: 53.2 % of VEGF-alone control
VEGF-induced phosphorylation of KDR (Tyr1175) in HUVECs pre-treated with mAb-43 (10 ug/mL), Western blot, relative to VEGF alone: 56.9 % of VEGF-alone control
B1: PTK7-FLAG (human PTK7 with a C-terminal FLAG tag) (receptor, UniProt Q13308 31-1070, looked up)
chain: AIVFIKQPSSQDALQGRRALLRCEVEAPGPVHVYWLLDGAPVQDTERRFAQGSSLSFAAVDRLQDSGTFQCVARDDVTGEEARSANASFNIKWIEAGPVVLKHPASEAEIQPQTQVTLRCHIDGHPRPTYQWFRDGTPLSDGQSNHTVSSKERNLTLRPAGPEHSGLYSCCAHSAFGQACSSQNFTLSIADESFARVVLAPQDVVVARYEEAMFHCQFSAQPPPSLQWLFEDETPITNRSRPPHLRRATVFANGSLLLTQVRPRNAGIYRCIGQGQRGPPIILEATLHLAEIEDMPLFEPRVFTAGSEERVTCLPPKGLPEPSVWWEHAGVRLPTHGRVYQKGHELVLANIAESDAGVYTCHAANLAGQRRQDVNITVATVPSWLKKPQDSQLEEGKPGYLDCLTQATPKPTVVWYRNQMLISEDSRFEVFKNGTLRINSVEVYDGTWYRCMSSTPAGSIEAQARVQVLEKLKFTPPPQPQQCMEFDKEATVPCSATGREKPTIKWERADGSSLPEWVTDNAGTLHFARVTRDDAGNYTCIASNGPQGQIRAHVQLTVAVFITFKVEPERTTVYQGHTALLQCEAQGDPKPLIQWKGKDRILDPTKLGPRMHIFQNGSLVIHDVAPEDSGRYTCIAGNSCNIKHTEAPLYVVDKPVPEESEGPGSPPPYKMIQTIGLSVGAAVAYIIAVLGLMFYCKKRCKAKRLQKQPEGEEPEMECLNGGPLQNGQPSAEIQEEVALTSLGSGPAATNKRHSTSDKMHFPRSSLQPITTLGKSEFGEVFLAKAQGLEEGVAETLVLVKSLQSKDEQQQLDFRRELEMFGKLNHANVVRLLGLCREAEPHYMVLEYVDLGDLKQFLRISKSKDEKLKSQPLSTKQKVALCTQVALGMEHLSNNRFVHKDLAARNCLVSAQRQVKVSALGLSKDVYNSEYYHFRQAWVPLRWMSPEAILEGDFSTKSDVWAFGVLMWEVFTHGEMPHGGQADDEVLADLQAGKARLPQPEGCPSKLYRLMQRCWALSPKDRPSFSEIASALGDSTVDSKP
